The text below walks through data of paper PMC4412080.

pEC50: −log10 of the molar value.

This assay concerns the target mouse anti-human CD4 IgG (BD Biosciences) (mouse). In words: ELISA; wells coated overnight at 4°C in PBS with mouse anti-human CD4 IgG (4 μg/mL) or with BSA; blocked with 3% BSA; phage (ID1-mZ 3 × 10^8 to 1 × 10^10 PFU/mL) in 0.1% Tween, 0.1% BSA in PBS for 1 h at r.t.; detected with HRP-conjugated anti-M13 antibody and TMB; mid-point of binding estimated; multivalent display; how the phage was prepared is not told.

In the case of “ID1-mZ phage (M13KE-derived phage that displays the minimized Z-domain of protein A and a TEV recognition sequence inside pIII, in linker L1)”, the negative logarithm of the EC50 (pEC50) is 12.22.
